Assay results reported in the supplement of paper PMC7125110.
± gives the standard error. This sample holds only a part of the variants without activity.

B1: glmS ribozyme (parent)
chain: AUAAAAGCGCCAGAACUACAGAAAUGUAGUUGACGAGGAGGAGGUUUAUCGAAUUUUCGGCGGAUGCCUCCAAA

Tests used:
Settings in all cases: with glucosamine-6-phosphate
glucosamine-6-phosphate [1] = variants of: B1; assay: self-cleavage kobs at 160 uM GlcN6P; higher = faster cleavage; RNA array
How it was run: (§1)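 Over ~14 h at 37 °C, tiles were imaged as glucosamine-6-phosphate (40 μM to 10 mM) in HEPES/KCl/Mg(OAc)2 buffer flowed across sequenced MiSeq chips. The chips carried barcoded ribozyme variants transcribed in situ by E. coli RNA polymerase and tracked with a hybridised Cy3 probe. After normalisation to baseline and to non-cleaving reference variants, one- or two-exponential decay fits of per-tile medians gave kobs. kcat and KM followed from weighted Michaelis–Menten fits across concentrations.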

glucosamine-6-phosphate [2] = variants of: B1; assay: self-cleavage kobs at 2500 uM GlcN6P; higher = faster cleavage; RNA array
How it was run: as §1

glucosamine-6-phosphate [3] = variants of: B1; assay: self-cleavage kobs at 640 uM GlcN6P; higher = faster cleavage; RNA array
How it was run: as §1

glucosamine-6-phosphate [4] = variants of: B1; assay: self-cleavage kobs at 10000 uM GlcN6P; higher = faster cleavage; RNA array
How it was run: as §1

Row | Variant | self-cleavage kobs at 160 uM GlcN6P (glucosamine-6-phosphate [1]) [s⁻¹] | self-cleavage kobs at 2500 uM GlcN6P (glucosamine-6-phosphate [2]) [s⁻¹] | self-cleavage kobs at 640 uM GlcN6P (glucosamine-6-phosphate [3]) [s⁻¹] | self-cleavage kobs at 10000 uM GlcN6P (glucosamine-6-phosphate [4]) [s⁻¹]
1 | U31G A33U U47G | < 1e-05 |  |  | 
2 | G35A A36U U55A | < 1e-05 |  |  | 
3 | A33G U47G A48C G51C | < 1e-05 |  |  | 
4 | C34A G35C | < 1e-05 | < 1e-05 |  | 
5 | U31A A33G C34U G59C | < 1e-05 |  | < 1e-05 | 
6 | G35U A64U | < 1e-05 | < 1e-05 | < 1e-05 | < 1e-05
7 | U31A G35C U54A A64U | < 1e-05 | < 1e-05 |  | 
8 | G35C G40C A52C | < 1e-05 | < 1e-05 | < 1e-05 | 
9 | U30G G32A G35A C67U | < 1e-05 |  | < 1e-05 | 
10 | G35C A42U G43A A52U | < 1e-05 | < 1e-05 | < 1e-05 | 
11 | G35C U69G | < 1e-05 | < 1e-05 |  | 
12 | C34G U56C | < 1e-05 |  |  | 
13 | U30C A36G U57C | < 1e-05 | < 1e-05 | < 1e-05 | 
14 | G35C C67G | < 1e-05 | < 1e-05 | < 1e-05 | 
15 | G37A C50G C71A | 0.000356 ± 0.00012 | 6.17e-05 ± 2.4e-05 | 0.000114 ± 3.6e-05 | 
16 | C34U C67A | < 1e-05 | < 1e-05 |  | 
17 | C34U C67U | < 1e-05 | < 1e-05 |  | 
18 | A33U U65G | < 1e-05 |  | < 1e-05 | 
19 | G32U G41U G60A | < 1e-05 | < 1e-05 |  | 
20 | A33C G35A | < 1e-05 | < 1e-05 | < 1e-05 | < 1e-05
21 | A36U U45A | < 1e-05 |  | < 1e-05 | 
22 | A36U U65C | < 1e-05 |  |  | 

Row | Variant | self-cleavage kobs at 160 uM GlcN6P (glucosamine-6-phosphate [1]) [s⁻¹] | self-cleavage kobs at 2500 uM GlcN6P (glucosamine-6-phosphate [2]) [s⁻¹] | self-cleavage kobs at 640 uM GlcN6P (glucosamine-6-phosphate [3]) [s⁻¹] | self-cleavage kobs at 10000 uM GlcN6P (glucosamine-6-phosphate [4]) [s⁻¹]
23 | C34G U47A | < 1e-05 | < 1e-05 | < 1e-05 | 
24 | G38C G63A | < 1e-05 | < 1e-05 | < 1e-05 | 
25 | G35C U57G G59C | < 1e-05 |  |  | 
26 | A36C G41C | < 1e-05 | < 1e-05 | < 1e-05 | < 1e-05
27 | G35C C50A G51U A52C | < 1e-05 |  | < 1e-05 | 
28 | G35U G43U A53C C70A | < 1e-05 |  |  | 
29 | A36U U49G A52C | < 1e-05 |  |  | 
30 | C34U G43U C50A G51U U55G | < 1e-05 |  |  | 
31 | C34U U56C G66C | < 1e-05 | < 1e-05 |  | 
32 | A36C U49A C70U | 4.96e-05 ± 2e-05 |  |  | 
33 | G32U G43U | < 1e-05 | < 1e-05 |  | 
34 | A33G A53C G59A | < 1e-05 | < 1e-05 |  | < 1e-05
35 | G29C G35A G59U A64G | < 1e-05 |  |  | 
36 | U31C A52U C71G | < 1e-05 |  |  | 
37 | U31A A52C | < 1e-05 | < 1e-05 |  | 
38 | G32U G63C | < 1e-05 |  | < 1e-05 | < 1e-05
39 | U30A U54A C67U C68A | 3.56e-05 ± 1.7e-05 | 4.46e-05 ± 2.1e-05 |  | 
40 | U30C C50U U56C | < 1e-05 |  | < 1e-05 | 
41 | G29U U31A U56A C67A | 2.97e-05 ± 1.5e-05 |  |  | 0.00027 ± 5.8e-05
42 | G35U C50U | < 1e-05 |  |  | < 1e-05
43 | G35U A53U G60U | < 1e-05 |  | < 1e-05 | 
44 | C34U C50G C68A | 9.29e-05 ± 2.9e-05 | 9.73e-05 ± 2.8e-05 |  | 

Row | Variant | self-cleavage kobs at 160 uM GlcN6P (glucosamine-6-phosphate [1]) [s⁻¹] | self-cleavage kobs at 2500 uM GlcN6P (glucosamine-6-phosphate [2]) [s⁻¹] | self-cleavage kobs at 640 uM GlcN6P (glucosamine-6-phosphate [3]) [s⁻¹] | self-cleavage kobs at 10000 uM GlcN6P (glucosamine-6-phosphate [4]) [s⁻¹]
45 | A36U A48G | < 1e-05 |  | < 1e-05 | < 1e-05
46 | G37A A39U U54C | 8.28e-05 ± 3.4e-05 | 0.000423 ± 6.7e-05 | 0.00016 ± 1.9e-05 | 
47 | U30G C50G C58G G60U C61G | 0.000251 ± 7.4e-05 | 0.00022 ± 6.9e-05 | 0.00014 ± 2.9e-05 | 
48 | G35A G41U A48G | < 1e-05 | < 1e-05 |  | 
49 | U31A C61G | < 1e-05 |  |  | < 1e-05
50 | U30G U31G C50A A52U G62U | < 1e-05 |  |  | 
51 | A33C G37A G63C | < 1e-05 | < 1e-05 | < 1e-05 | 
52 | A33C U45G U55C U57C A64U | < 1e-05 | < 1e-05 | < 1e-05 | 
53 | G35U C67A | < 1e-05 | < 1e-05 | < 1e-05 | 
54 | G29U U49C C50G C70A | 5.5e-05 ± 2.2e-05 |  | 0.000125 ± 5.5e-05 | 
55 | G32U A42C | < 1e-05 | < 1e-05 | < 1e-05 | 
56 | G32U A52U | < 1e-05 | < 1e-05 | < 1e-05 | 
57 | C34U G63A G66U | < 1e-05 |  | < 1e-05 | 
58 | G35A G41C | < 1e-05 |  | < 1e-05 | 
59 | G35A G62C | < 1e-05 | < 1e-05 | < 1e-05 | 
60 | G35A G62U | < 1e-05 | < 1e-05 |  | < 1e-05
61 | A36G G41C A53U | < 1e-05 |  | < 1e-05 | 
62 | A33G A42U G59U | < 1e-05 |  |  | 
63 | A36U G40U | < 1e-05 |  | < 1e-05 | < 1e-05
64 | G35U G51A | < 1e-05 |  | < 1e-05 | < 1e-05
65 | A33U C50U G62C | < 1e-05 | < 1e-05 | < 1e-05 | 
66 | U31A G62C C71U | < 1e-05 |  | < 1e-05 | 

Row | Variant | self-cleavage kobs at 160 uM GlcN6P (glucosamine-6-phosphate [1]) [s⁻¹] | self-cleavage kobs at 2500 uM GlcN6P (glucosamine-6-phosphate [2]) [s⁻¹] | self-cleavage kobs at 640 uM GlcN6P (glucosamine-6-phosphate [3]) [s⁻¹] | self-cleavage kobs at 10000 uM GlcN6P (glucosamine-6-phosphate [4]) [s⁻¹]
67 | G37A C50A C61G | < 1e-05 |  | < 1e-05 | 
68 | G32C G63U | < 1e-05 |  | < 1e-05 | 
69 | G32U G35A A42C | < 1e-05 | < 1e-05 | < 1e-05 | 
70 | G37A G38U U55C | < 1e-05 |  | < 1e-05 | 
71 | A33C A36G | < 1e-05 | < 1e-05 | < 1e-05 | < 1e-05
72 | G35C A39U U49G C50G | < 1e-05 | < 1e-05 |  | 
73 | G35U A39U | < 1e-05 | < 1e-05 | < 1e-05 | 
74 | U31A G35C A48G | < 1e-05 |  | < 1e-05 | 
75 | U30A A39C U55C | 4.87e-05 ± 1.3e-05 | 0.000864 ± 0.00021 | 0.00025 ± 4.5e-05 | 
76 | U30A U56C G60U A64C | < 1e-05 |  | < 1e-05 | 
77 | G35C A36U C58U | < 1e-05 | < 1e-05 |  | 
78 | U30A A48C C67G | < 1e-05 |  |  | 
79 | C34A A64C C68U | < 1e-05 | < 1e-05 | < 1e-05 | 
80 | U31C U56G G60C | < 1e-05 |  | < 1e-05 | < 1e-05
81 | U31A G51A | < 1e-05 | < 1e-05 | < 1e-05 | < 1e-05
82 | A36U G63C C67U | < 1e-05 | < 1e-05 | < 1e-05 | 
83 | G37A G60A G66U | < 1e-05 |  |  | 
84 | G37C G43C A52C | < 1e-05 | < 1e-05 |  | 
85 | A33G C34A U55A C70A | 0.00034 ± 0.00013 |  | 9.12e-05 ± 3.4e-05 | 
86 | A33C A39C A52U C70U | < 1e-05 |  | < 1e-05 | 
87 | G35A G41C U69A | < 1e-05 | < 1e-05 | < 1e-05 | 
88 | U31C U69A | 4.12e-05 ± 1.4e-05 | 5.91e-05 ± 1.4e-05 |  | 

Row | Variant | self-cleavage kobs at 160 uM GlcN6P (glucosamine-6-phosphate [1]) [s⁻¹] | self-cleavage kobs at 2500 uM GlcN6P (glucosamine-6-phosphate [2]) [s⁻¹] | self-cleavage kobs at 640 uM GlcN6P (glucosamine-6-phosphate [3]) [s⁻¹] | self-cleavage kobs at 10000 uM GlcN6P (glucosamine-6-phosphate [4]) [s⁻¹]
89 | U30A G51U | < 1e-05 | < 1e-05 | < 1e-05 | < 1e-05
90 | C34U C71U | < 1e-05 | < 1e-05 | < 1e-05 | < 1e-05
91 | A36U A42U | < 1e-05 | < 1e-05 | < 1e-05 | < 1e-05
92 | U30G C34A | < 1e-05 | < 1e-05 | < 1e-05 | 
93 | G35C G60A C68A | < 1e-05 |  | < 1e-05 | 
94 | G35U U49G | < 1e-05 | < 1e-05 | < 1e-05 | < 1e-05
95 | G32U C50A G59A | < 1e-05 |  | < 1e-05 | 
96 | U30C U46G U54A | < 1e-05 |  |  | 
97 | G29U U45C U56C | < 1e-05 |  |  | 
98 | G32U G60U | < 1e-05 | < 1e-05 | < 1e-05 | 
99 | A33G A39U A64U C70G | < 1e-05 | < 1e-05 |  | 
100 | A33U G35A | < 1e-05 | < 1e-05 | < 1e-05 | 
101 | A36C U45C | < 1e-05 | < 1e-05 | < 1e-05 | 
102 | U30A U31C G60A C71A | < 1e-05 |  |  | 
103 | U30C G59U | < 1e-05 | < 1e-05 | < 1e-05 | < 1e-05
104 | A33U U47A G62U A64G C71U | < 1e-05 |  | < 1e-05 | 
105 | G32C G44A A48U | < 1e-05 | < 1e-05 | < 1e-05 | 
106 | G35A A48G G51C A64C | < 1e-05 |  |  | 
